From patent US20250092108A1

Molecular target: IL-2 receptors (high-affinity IL-2Rαβγ or intermediate-affinity IL-2Rβγ) on PBMC lymphocytes (UniProt P01589)
Experiment: cell-based or functional assay

Chain of IL-2 receptors (high-affinity IL-2Rαβγ or intermediate-affinity IL-2Rβγ) on PBMC lymphocytes (P01589 22-272 limits assumed, chain 1 of 3): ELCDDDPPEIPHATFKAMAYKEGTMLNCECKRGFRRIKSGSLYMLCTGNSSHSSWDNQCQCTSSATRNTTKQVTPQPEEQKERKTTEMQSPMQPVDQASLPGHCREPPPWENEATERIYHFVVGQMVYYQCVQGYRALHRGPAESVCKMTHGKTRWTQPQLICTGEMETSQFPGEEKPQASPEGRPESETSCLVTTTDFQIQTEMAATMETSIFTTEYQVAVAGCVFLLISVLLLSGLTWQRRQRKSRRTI
Chain of IL-2 receptors (high-affinity IL-2Rαβγ or intermediate-affinity IL-2Rβγ) on PBMC lymphocytes (P14784 27-551 limits assumed, chain 2 of 3, further chain): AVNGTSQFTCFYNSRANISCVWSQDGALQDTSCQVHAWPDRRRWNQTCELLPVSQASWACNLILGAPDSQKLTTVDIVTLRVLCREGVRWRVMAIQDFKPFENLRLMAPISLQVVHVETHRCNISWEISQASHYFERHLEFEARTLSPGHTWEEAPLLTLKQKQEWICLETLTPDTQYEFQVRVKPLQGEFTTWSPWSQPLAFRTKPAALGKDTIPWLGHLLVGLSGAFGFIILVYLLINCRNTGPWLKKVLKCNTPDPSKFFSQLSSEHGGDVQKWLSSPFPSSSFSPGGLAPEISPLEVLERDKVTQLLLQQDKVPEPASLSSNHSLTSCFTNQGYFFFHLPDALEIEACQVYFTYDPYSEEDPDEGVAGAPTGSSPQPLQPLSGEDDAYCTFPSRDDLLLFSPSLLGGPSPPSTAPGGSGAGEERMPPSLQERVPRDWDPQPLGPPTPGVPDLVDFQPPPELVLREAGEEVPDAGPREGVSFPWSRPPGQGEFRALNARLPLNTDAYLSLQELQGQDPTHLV
Chain of IL-2 receptors (high-affinity IL-2Rαβγ or intermediate-affinity IL-2Rβγ) on PBMC lymphocytes (P31785 23-369 limits assumed, chain 3 of 3, further chain): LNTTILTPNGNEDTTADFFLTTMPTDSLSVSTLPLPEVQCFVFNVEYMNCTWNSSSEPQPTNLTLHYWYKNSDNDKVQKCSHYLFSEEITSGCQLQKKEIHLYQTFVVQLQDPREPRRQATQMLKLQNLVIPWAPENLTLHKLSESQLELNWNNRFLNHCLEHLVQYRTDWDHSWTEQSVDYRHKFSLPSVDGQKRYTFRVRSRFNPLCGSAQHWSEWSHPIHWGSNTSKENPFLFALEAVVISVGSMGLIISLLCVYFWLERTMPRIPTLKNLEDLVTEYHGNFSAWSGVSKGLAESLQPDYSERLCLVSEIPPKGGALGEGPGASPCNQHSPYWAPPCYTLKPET

EC50, induction of STAT5 phosphorylation (in vitro potency): 0.01 nM
Substance: XENP27193, an Fc-IL-2(V91K/C125A) fusion as described in WO 2014/153111 (from UniProt P60568 21-153) (Fc fusion)
